Assay results published in patent publication US20220403041A1 (Sanofi, published 2022).
Values belong to the binder of their own block, whether it stands above or below them.

Key:
[1] = biological target: T1, human CD73 on COR-L23 lung carcinoma cells (human) (UniProt P21589)
T1 sequence: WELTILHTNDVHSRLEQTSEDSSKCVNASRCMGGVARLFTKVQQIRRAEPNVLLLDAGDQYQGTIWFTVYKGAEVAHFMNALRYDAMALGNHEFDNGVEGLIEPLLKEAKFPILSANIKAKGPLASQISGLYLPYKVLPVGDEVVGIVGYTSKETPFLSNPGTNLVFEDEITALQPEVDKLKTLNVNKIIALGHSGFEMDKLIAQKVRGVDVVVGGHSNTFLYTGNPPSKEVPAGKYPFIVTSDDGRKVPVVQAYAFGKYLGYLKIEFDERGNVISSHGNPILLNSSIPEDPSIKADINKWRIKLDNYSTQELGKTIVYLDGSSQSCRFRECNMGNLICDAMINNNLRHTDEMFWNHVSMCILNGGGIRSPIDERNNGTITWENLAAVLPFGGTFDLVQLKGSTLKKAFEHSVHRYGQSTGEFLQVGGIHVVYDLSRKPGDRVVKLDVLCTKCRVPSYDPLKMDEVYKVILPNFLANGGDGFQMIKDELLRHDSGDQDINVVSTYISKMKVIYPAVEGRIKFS

soluble CD73 dimer [2] = biological target: T2, soluble CD73 dimer (human, UniProt P21589 27-549, limits assumed); assay: SPR, antibody captured on Protein A chip, CD73 in flow; Langmuir 1:1 fit
T2 construct: CD73 in the flow (SPR) or in solution (BLI binning); also called soluble human CD73
T2 sequence: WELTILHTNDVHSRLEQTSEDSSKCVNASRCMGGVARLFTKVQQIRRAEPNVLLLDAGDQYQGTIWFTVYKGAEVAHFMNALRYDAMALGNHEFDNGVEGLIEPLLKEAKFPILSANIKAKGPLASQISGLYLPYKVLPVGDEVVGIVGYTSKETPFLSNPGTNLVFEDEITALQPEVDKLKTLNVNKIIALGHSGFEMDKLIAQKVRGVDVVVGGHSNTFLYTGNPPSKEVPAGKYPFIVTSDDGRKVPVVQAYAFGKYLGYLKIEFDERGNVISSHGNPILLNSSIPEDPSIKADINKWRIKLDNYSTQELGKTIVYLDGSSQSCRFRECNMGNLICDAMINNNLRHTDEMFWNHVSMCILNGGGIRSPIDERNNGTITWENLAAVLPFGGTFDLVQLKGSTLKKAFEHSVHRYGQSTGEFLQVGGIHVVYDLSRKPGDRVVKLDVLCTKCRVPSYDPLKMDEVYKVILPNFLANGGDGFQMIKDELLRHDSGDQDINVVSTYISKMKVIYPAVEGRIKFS

soluble CD73 dimer [3] = biological target: T2, soluble CD73 dimer; assay: SPR, antibody captured on Protein A chip, CD73 in flow; Langmuir ka with major component kd

% inhibition of CD73 activity at 1 µg/ml antibody (COR-L23 cells, 4 h, LC/MS); cell TB19 x F1.2 [1]: 47%
B1: TB19/F1.2 (bispecific antibody, part only; not given: F1.2 arm, part only)
TB19 arm heavy chain: QEQLQESGPGLVKPSETLSLTCTVSGGSIRNNYYNWIRQPAGKGLEWIGRIYISGTTNSNPSLKSRVTMSIDTSKNQFSLKLSSVTAADTAIYYCAREHYVSGTSLDNWGQGTLVTVSS
TB19 arm light chain: EIVMTQSPTTLSLSPGERATLSCRASQSVNTNYFSWYQQKPGLTPRLLIYGTSTRATGIPARFSGSGSGTDFTLTISSLQPEDFGIYYCQQDYNLPYTFGQGTYLEIKRTVAAPSVFIFPPSDEQLKSGTASVVCLLNNFYPREAKVQWKVDNALQSGNSQESVTEQDSKDSTYSLSSTLTLSKADYEKHKVYACEVTHQGLSSPVTKSFNRGEC

% inhibition of CD73 activity at 1 µg/ml antibody (COR-L23 cells, 4 h, LC/MS); cell TB19 x TA9 [1]: 70%
B2: TB19/TA9 (bispecific antibody, part only; not given: TA9 arm, part only)
TB19 arm heavy chain: QEQLQESGPGLVKPSETLSLTCTVSGGSIRNNYYNWIRQPAGKGLEWIGRIYISGTTNSNPSLKSRVTMSIDTSKNQFSLKLSSVTAADTAIYYCAREHYVSGTSLDNWGQGTLVTVSS
TB19 arm light chain: EIVMTQSPTTLSLSPGERATLSCRASQSVNTNYFSWYQQKPGLTPRLLIYGTSTRATGIPARFSGSGSGTDFTLTISSLQPEDFGIYYCQQDYNLPYTFGQGTYLEIKRTVAAPSVFIFPPSDEQLKSGTASVVCLLNNFYPREAKVQWKVDNALQSGNSQESVTEQDSKDSTYSLSSTLTLSKADYEKHKVYACEVTHQGLSSPVTKSFNRGEC

% inhibition of CD73 activity at 1 µg/ml antibody (COR-L23 cells, 4 h, LC/MS); cell TB19 x E23 [1]: 50%
B3: TB19/E23 (bispecific antibody, part only; not given: E23 arm, part only)
TB19 arm heavy chain: QEQLQESGPGLVKPSETLSLTCTVSGGSIRNNYYNWIRQPAGKGLEWIGRIYISGTTNSNPSLKSRVTMSIDTSKNQFSLKLSSVTAADTAIYYCAREHYVSGTSLDNWGQGTLVTVSS
TB19 arm light chain: EIVMTQSPTTLSLSPGERATLSCRASQSVNTNYFSWYQQKPGLTPRLLIYGTSTRATGIPARFSGSGSGTDFTLTISSLQPEDFGIYYCQQDYNLPYTFGQGTYLEIKRTVAAPSVFIFPPSDEQLKSGTASVVCLLNNFYPREAKVQWKVDNALQSGNSQESVTEQDSKDSTYSLSSTLTLSKADYEKHKVYACEVTHQGLSSPVTKSFNRGEC

% inhibition of CD73 activity at 1 µg/ml antibody (COR-L23 cells, 4 h, LC/MS); cell TB19 x AS30 (monovalent) [1]: -1%
koff (soluble CD73 dimer [2]): 0.00069 s⁻¹
kon (soluble CD73 dimer [2]): 165000 M⁻¹ s⁻¹
Kd (soluble CD73 dimer [3]): 4.18 nM
B4: TB19/AS30 (bispecific antibody, part only; not given: AS30 arm, constant regions, V domains shown, not shown: another chain or arm of the molecule; a dimerising Fc or GST; small tags and cut ends)
VH: QEQLQESGPGLVKPSETLSLTCTVSGGSIRNNYYNWIRQPAGKGLEWIGRIYISGTTNSNPSLKSRVTMSIDTSKNQFSLKLSSVTAADTAIYYCAREHYVSGTSLDNWGQGTLVTVSS
VL: EIVMTQSPTTLSLSPGERATLSCRASQSVNTNYFSWYQQKPGLTPRLLIYGTSTRATGIPARFSGSGSGTDFTLTISSLQPEDFGIYYCQQDYNLPYTFGQGTYLEIK
